Source: PMC2779222 (The Journal of Cell Biology, 2009)

B1: CEACAM1-4ΔCyto–YFP (domain or fragment, rat, UniProt P16573 35-448, looked up)
chain: QVTVDAVPPNVVEEKSVLLLAHNLPQEFQVFYWYKGTTLNPDSEIARYIRSDNMSKTGPAYSGRETIYSNGSLFFQNVNKTDERAYTLSVFDQQFNPIQTSVQFRVYPALQKPNVTGNNSNPMEGEPFVSLMCEPYTNNTSYLWSRNGESLSEGDRVTFSEGNRTLTLLNVRRTDKGYYECEARNPATFNRSDPFNLDVIYGPDAPVISPPDIYLHQGSNLNLSCHADSNPPAQYFWLINEKLQTSSQELFISNITTNNSGTYACFVNNTVTGLSRTTVKNITVFEPVTQPSIQITNTTVKELGSVTLTCFSKDTGVSVRWLFNSQSLQLTDRMTLSQDNSTLRIDPIKREDAGDYQCEISNPVSFRISHPIKLDVIPDPTQGNSGLSEGAIAGIVIGSVAGVALIAALAYFLY

Legend:
ΔN–CEACAM1-3L–YFP (rat) = ΔN–CEACAM1-3L–YFP (rat) (UniProt P16573); assay: cross-linking
cross-linking = biological target: the molecule itself; assay: cross-linking

Molecule | stoichiometry N (ΔN–CEACAM1-3L–YFP (rat)) | stoichiometry N (cross-linking)
ΔN–CEACAM1-3L–YFP (from UniProt P16573 35-519) (domain or fragment) | 2 | 
B1 |  | 2
